Reference: FireProtDB (doi:10.1002/prot.1088)
Values joined by “and” are separate entries in the source; they are usually repeats but may differ in a detail not shown here. Equal entries are not always repeated.

B1: Lysozyme C, P61626 (parent)
chain: MKALIVLGLVLLSVTVQGKVFERCELARTLKRLGMDGYRGISLANWMCLAKWESGYNTRATNYNAGDRSTDYGIFQINSRYWCNDGKTPGAVNACHLSCSALLQDNIADAVACAKRVVRDPQGIRAWVAWRNRCQNRDVRQYVQGCGV

Variants of: B1
Settings: Homo sapiens; pH 2.5; Thermal; DSC; Gly-HCl 0.05 M; reversible: yes; structure 1LZ1; whole UniProt chain shown

| Variant | Tm [°C] | unfolding enthalpy (calorimetric) [kcal/mol] | unfolding enthalpy (van 't Hoff) [kcal/mol] |
| --- | --- | --- | --- |
| Q76A | 64.5 | 97 | 103 |
| Y56G | 53 | 85.8 | 87 |
| H96A | 61.1 | 97.5 | 107 |
| R68A | 62.8 | 101 | 108 |
| R39G | 64.6 | 102 | 107 |

Same assay, conditions: Homo sapiens; pH 2.7; 64.9 °C; Thermal; DSC; Gly-HCl 0.05 M; reversible: yes; structure 1LZ1; whole UniProt chain shown

| Variant | ddG of mutation (higher = less stable) [kcal/mol] |
| --- | --- |
| Q76A | -0.91 |
| Y56G | 2.32 |
| Y56A | 2.49 |
| H96A | 0.14 |
| R68A | -0.43 |
| N136G | -0.05 |
| N136A | -0.19 |
| R39G | -1.15 |

Same assay, conditions: Homo sapiens; pH 2.7; Thermal; DSC; Gly-HCl 0.05 M; reversible: yes; structure 1LZ1; whole UniProt chain shown

| Variant | Tm | change of melting temperature, mutant - wild type (higher = more stable) [°C] | heat capacity change of unfolding [kcal/mol/K] | unfolding enthalpy (calorimetric) | unfolding enthalpy (van 't Hoff) [kcal/mol] |
| --- | --- | --- | --- | --- | --- |
| Q76A | 67.8 °C and 68 °C | 3.1 | 1.65 | 104 kcal/mol and 98.2 kcal/mol | 113 |
| Y56G | 56.7 °C | -8.2 | 0.96 | 96.8 kcal/mol |  |
| Y56A | 56 °C | -8.9 | 0.98 | 96.8 kcal/mol |  |
| H96A | 64.3 °C and 64.4 °C | -0.5 | 1.51 | 103 kcal/mol | 112 |
| R68A | 66.3 °C | 1.4 | 1.51 | 104 kcal/mol |  |
| N136G | 65.1 °C | 0.2 | 1.65 | 101 kcal/mol |  |
| N136A | 65.5 °C | 0.6 | 1.24 | 104 kcal/mol |  |
| R39G | 68.6 °C | 3.7 | 1.74 | 103 kcal/mol |  |
| R39A | 69.4 °C | 4.5 | 1.82 | 96.6 kcal/mol |  |

Same assay, conditions: Homo sapiens; pH 3.1; Thermal; DSC; Gly-HCl 0.05 M; reversible: yes; structure 1LZ1; whole UniProt chain shown

| Variant | Tm [°C] | unfolding enthalpy (calorimetric) [kcal/mol] | unfolding enthalpy (van 't Hoff) [kcal/mol] |
| --- | --- | --- | --- |
| Q76A | 75.1 | 115 | 123 |
| N136G | 71.6 | 113 | 119 |

Same assay, conditions: Homo sapiens; pH 2.78; Thermal; DSC; Gly-HCl 0.05 M; reversible: yes; structure 1LZ1; whole UniProt chain shown

| Variant | Tm [°C] | unfolding enthalpy (calorimetric) [kcal/mol] | unfolding enthalpy (van 't Hoff) [kcal/mol] |
| --- | --- | --- | --- |
| Y56G | 58.5 | 90.1 | 92.3 |

Same assay, conditions: Homo sapiens; pH 3.24; Thermal; DSC; Gly-HCl 0.05 M; reversible: yes; structure 1LZ1; whole UniProt chain shown

| Variant | Tm [°C] | unfolding enthalpy (calorimetric) [kcal/mol] | unfolding enthalpy (van 't Hoff) [kcal/mol] |
| --- | --- | --- | --- |
| Y56G | 65.6 | 97.8 | 99.7 |

Same assay, conditions: Homo sapiens; pH 2.72; Thermal; DSC; Gly-HCl 0.05 M; reversible: yes; structure 1LZ1; whole UniProt chain shown

| Variant | Tm [°C] | unfolding enthalpy (calorimetric) [kcal/mol] | unfolding enthalpy (van 't Hoff) [kcal/mol] |
| --- | --- | --- | --- |
| Y56A | 56.3 | 88 | 89.2 |

Same assay, conditions: Homo sapiens; pH 3; Thermal; DSC; Gly-HCl 0.05 M; reversible: yes; structure 1LZ1; whole UniProt chain shown

| Variant | Tm [°C] | unfolding enthalpy (calorimetric) [kcal/mol] | unfolding enthalpy (van 't Hoff) [kcal/mol] |
| --- | --- | --- | --- |
| Y56A | 61.7 | 94.4 | 96.3 |
| H96A | 69.5 | 110 | 117 |
| R68A | 70.9 | 114 | 121 |

Same assay, conditions: Homo sapiens; pH 3.18; Thermal; DSC; Gly-HCl 0.05 M; reversible: yes; structure 1LZ1; whole UniProt chain shown

| Variant | Tm [°C] | unfolding enthalpy (calorimetric) [kcal/mol] | unfolding enthalpy (van 't Hoff) [kcal/mol] |
| --- | --- | --- | --- |
| Y56A | 65 | 96.3 | 97.5 |

Same assay, conditions: Homo sapiens; pH 2.71; Thermal; DSC; Gly-HCl 0.05 M; reversible: yes; structure 1LZ1; whole UniProt chain shown

| Variant | Tm [°C] | unfolding enthalpy (calorimetric) [kcal/mol] | unfolding enthalpy (van 't Hoff) [kcal/mol] |
| --- | --- | --- | --- |
| R68A | 66.6 | 106 | 113 |
| R39A | 69.8 | 106 | 113 |

Same assay, conditions: Homo sapiens; pH 2.84; Thermal; DSC; Gly-HCl 0.05 M; reversible: yes; structure 1LZ1; whole UniProt chain shown

| Variant | Tm [°C] | unfolding enthalpy (calorimetric) [kcal/mol] | unfolding enthalpy (van 't Hoff) [kcal/mol] |
| --- | --- | --- | --- |
| R68A | 69.1 | 109 | 117 |

Same assay, conditions: Homo sapiens; pH 2.74; Thermal; DSC; Gly-HCl 0.05 M; reversible: yes; structure 1LZ1; whole UniProt chain shown

| Variant | Tm [°C] | unfolding enthalpy (calorimetric) [kcal/mol] | unfolding enthalpy (van 't Hoff) [kcal/mol] |
| --- | --- | --- | --- |
| N136G | 65.7 | 103 | 110 |
| N136A | 66.2 | 107 | 112 |

Same assay, conditions: Homo sapiens; pH 2.95; Thermal; DSC; Gly-HCl 0.05 M; reversible: yes; structure 1LZ1; whole UniProt chain shown

| Variant | Tm [°C] | unfolding enthalpy (calorimetric) [kcal/mol] | unfolding enthalpy (van 't Hoff) [kcal/mol] |
| --- | --- | --- | --- |
| N136G | 69.3 | 107 | 115 |

Same assay, conditions: Homo sapiens; pH 2.51; Thermal; DSC; Gly-HCl 0.05 M; reversible: yes; structure 1LZ1; whole UniProt chain shown

| Variant | Tm [°C] | unfolding enthalpy (calorimetric) [kcal/mol] | unfolding enthalpy (van 't Hoff) [kcal/mol] |
| --- | --- | --- | --- |
| N136A | 62.1 | 99.9 | 106 |
| R39A | 66.1 | 98.7 | 107 |

Same assay, conditions: Homo sapiens; pH 2.87; Thermal; DSC; Gly-HCl 0.05 M; reversible: yes; structure 1LZ1; whole UniProt chain shown

| Variant | Tm [°C] | unfolding enthalpy (calorimetric) [kcal/mol] | unfolding enthalpy (van 't Hoff) [kcal/mol] |
| --- | --- | --- | --- |
| N136A | 68.6 | 109 | 117 |

Same assay, conditions: Homo sapiens; pH 3.02; Thermal; DSC; Gly-HCl 0.05 M; reversible: yes; structure 1LZ1; whole UniProt chain shown

| Variant | Tm [°C] | unfolding enthalpy (calorimetric) [kcal/mol] | unfolding enthalpy (van 't Hoff) [kcal/mol] |
| --- | --- | --- | --- |
| N136A | 70.9 | 111 | 118 |

Same assay, conditions: Homo sapiens; pH 2.69; Thermal; DSC; Gly-HCl 0.05 M; reversible: yes; structure 1LZ1; whole UniProt chain shown

| Variant | Tm [°C] | unfolding enthalpy (calorimetric) [kcal/mol] | unfolding enthalpy (van 't Hoff) [kcal/mol] |
| --- | --- | --- | --- |
| R39G | 68.2 | 109 | 113 |

Same assay, conditions: Homo sapiens; pH 2.81; Thermal; DSC; Gly-HCl 0.05 M; reversible: yes; structure 1LZ1; whole UniProt chain shown

| Variant | Tm [°C] | unfolding enthalpy (calorimetric) [kcal/mol] | unfolding enthalpy (van 't Hoff) [kcal/mol] |
| --- | --- | --- | --- |
| R39G | 70.9 | 113 | 116 |

Same assay, conditions: Homo sapiens; pH 3.23; Thermal; DSC; Gly-HCl 0.05 M; reversible: yes; structure 1LZ1; whole UniProt chain shown

| Variant | Tm [°C] | unfolding enthalpy (calorimetric) [kcal/mol] | unfolding enthalpy (van 't Hoff) [kcal/mol] |
| --- | --- | --- | --- |
| R39A | 77.6 | 120 | 129 |
